# From patent publication US6132750A (Coletica, priority 1998, dated 2000)
# B1: Lactoferrin (protein, UniProt P02788 20-710, looked up)
# Lactotransferrin: GRRRSVQWCAVSQPEATKCFQWQRNMRKVRGPPVSCIKRDSPIQCIQAIAENRADAVTLDGGFIYEAGLAPYKLRPVAAEVYGTERQPRTHYYAVAVVKKGGSFQLNELQGLKSCHTGLRRTAGWNVPIGTLRPFLNWTGPPEPIEAAVARFFSASCVPGADKGQFPNLCRLCAGTGENKCAFSSQEPYFSYSGAFKCLRDGAGDVAFIRESTVFEDLSDEAERDEYELLCPDNTRKPVDKFKDCHLARVPSHAVVARSVNGKEDAIWNLLRQAQEKFGKDKSPKFQLFGSPSGQKDLLFKDSAIGFSRVPPRIDSGLYLGSGYFTAIQNLRKSEEEVAARRARVVWCAVGEQELRKCNQWSGLSEGSVTCSSASTTEDCIALVLKGEADAMSLDGGYVYTAGKCGLVPVLAENYKSQQSSDPDPNCVDRPVEGYLAVAVVRRSDTSLTWNSVKGKKSCHTAVDRTAGWNIPMGLLFNQTGSCKFDEYFSQSCAPGSDPRSNLCALCIGDEQGENKCVPNSNERYYGYTGAFRCLAENAGDVAFVKDVTVLQNTDGNNNEAWAKDLKLADFALLCLDGKRKPVTEARSCHLAMAPNHAVVSRMDKVERLKQVLLHQQAKFGRNGSDCPDKFCLFQSETKNLLFNDNTECLARLHGKTTYEKYLGPQYVAGITNLKKCSTSPLLEACEFLRK
# notes: chelating agent conventionally used in cosmetics for trapping iron
# Test: Inhibition of the Fe2+ induced radical degradation of hyaluronic acid (viscosity drop)
# Protocol: The chelating microspheres prepared according to I2 are used to evaluate their capacity, via the trapping of ferrous iron Fe2+, to inhibit the radical degradation of hyaluronic acid, glycosarinoglycan implied in the moisturisation of the human dermis, which is therefore a particularly important target to protect in cosmetic and dermo-pharmaceutical applications.
# A 10 g/l solution of hyaluronic acid of high molecular weight (>1,000,000g/mol or Daltons) is prepared in demineralised water. To this solution is added an amount of Fe2+ of 620 ppm.
# Other chelating agents which are conventionally used in cosmetics were used and compared to the chelating microspheres, for their capacity to reduce the radical degradation of hyaluronic acid. Indices of protection, expressed in % of protection, are calculated by carrying out a ratio of the drop in viscosity observed by the presence of iron Fe2+ (620 ppm) in the presence of the chelating agent studied, and the drop in viscosity observed with and without iron Fe2+.
molecule,measurement,setting,value
B1,Index of protection (%),"concentration used 133 mg/l, hyaluronic acid 10 g/l, Fe2+ 620 ppm",25%
same,effect on the depolymerisation (radical cleavage) of hyaluronic acid in the presence of iron,in words,accelerated
